Data on five proteins can be found in US20180009908.

Changes are numbered by the printed parent chain. Names and notes keep the numbering of the source.

Data set [1] addresses BHA10 HC_20.8_B + BHA10 LC (IgG1). The data set is described as follows: LCMS, IgG1 BsAb co-expression in HEK293F.
For data set [2], the target named is matuzumab HC_20.8_B + matuzumab LC (IgG1). Nature of the data set: LCMS, IgG1 BsAb co-expression in HEK293F.
Data set [3] in a line: LCMS, IgG1 BsAb co-expression; HCA homodimer species.
Data set [4] addresses BHA10 HC_20.8_B + BHA10 LC (IgG1). The data set is described as follows: LCMS, IgG1 BsAb co-expression; HCA/HCB heterodimer carrying two LC1.
For data set [5], the target named is matuzumab HC_20.8_B + matuzumab LC (IgG1). The description is as above.
Data set [6] concerns the target BHA10 HC_20.8_B + BHA10 LC (IgG1). The data set is described as follows: LCMS, IgG1 BsAb co-expression; HCA/HCB heterodimer carrying two LC2.
Data set [7] deals with matuzumab HC_20.8_B + matuzumab LC (IgG1). The description is as above.
The target of data set [8] is BHA10 HC_7.8.60_B + BHA10 LC (IgG4 HC backbone). The data set is described as follows: LCMS, IgG4 BsAb co-expression in HEK293F.
Data set [9] concerns the target matuzumab HC_7.8.60_B + matuzumab LC (IgG4 HC backbone). The data set is described as follows: LCMS, IgG4 BsAb co-expression in HEK293F.
Data set [10] is described as follows: LCMS, IgG4 BsAb co-expression; HCA homodimer species.
The target of data set [11] is BHA10 HC_7.8.60_B + BHA10 LC (IgG4 HC backbone). Nature of the data set: LCMS, IgG4 BsAb co-expression; HCA/HCB heterodimer carrying two LC1.
The target in data set [12] is matuzumab HC_7.8.60_B + matuzumab LC (IgG4 HC backbone). The data set is described as above.
In data set [13] the target is BHA10 HC_7.8.60_B + BHA10 LC (IgG4 HC backbone). The data set is described as follows: LCMS, IgG4 BsAb co-expression; HCA/HCB heterodimer carrying two LC2.
Data set [14] has as its target matuzumab HC_7.8.60_B + matuzumab LC (IgG4 HC backbone). Described as above.
Data set [15] deals with BHA10 HC_20.8.34_B + BHA10 LC (IgG4 HC backbone). The data set is described as follows: LCMS, IgG4 BsAb co-expression in HEK293F.
The target of data set [16] is matuzumab HC_20.8.34_B + matuzumab LC (IgG4 HC backbone). The data set is described as follows: LCMS, IgG4 BsAb co-expression in HEK293F.
For data set [17], the target named is BHA10 HC_20.8.34_B + BHA10 LC (IgG4 HC backbone). Nature of the data set: LCMS, IgG4 BsAb co-expression; HCA/HCB heterodimer carrying two LC1.
Data set [18] has as its target matuzumab HC_20.8.34_B + matuzumab LC (IgG4 HC backbone). Described as above.
Data set [19] has as its target BHA10 HC_20.8.34_B + BHA10 LC (IgG4 HC backbone). The data set is described as follows: LCMS, IgG4 BsAb co-expression; HCA/HCB heterodimer carrying two LC2.
For data set [20], the target named is matuzumab HC_20.8.34_B + matuzumab LC (IgG4 HC backbone). The description is as above.
In data set [21] the target is T1, HA-tagged human IgG1 Fc portion with CH3 mutations E345R, Q347R, T366V, K409V.
T1 chain: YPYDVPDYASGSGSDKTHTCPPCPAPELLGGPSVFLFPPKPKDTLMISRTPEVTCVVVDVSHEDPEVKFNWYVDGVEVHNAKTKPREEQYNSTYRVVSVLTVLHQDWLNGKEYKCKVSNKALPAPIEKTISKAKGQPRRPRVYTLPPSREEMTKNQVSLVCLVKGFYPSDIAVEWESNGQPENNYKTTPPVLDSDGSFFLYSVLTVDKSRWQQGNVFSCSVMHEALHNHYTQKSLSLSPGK
Nature of the data set: UPLC SEC of protein G-purified one-arm antibody co-expressed in HEK293F.

Data set [22] addresses T2, HA-tagged human IgG1 Fc portion with CH3 mutations K360D, D399M, Y407A.
T2 chain: T1 chain with R139E, R141Q, K154D, V160T, D193M, Y201A, V203K
The description is as above.

The mark [23] stands for this setting: Pertuzumab × BHA10 IgG BsAbs (with select CH3 Designs).
The mark [24] stands for this setting: Pertuzumab × Matuzumab IgG BsAbs (with select CH3 Designs).

B1: pertuzumab HC_20.8_A + pertuzumab LC (IgG1) (protein)
chain 1: EVQLVESGGGLVQPGGSLRLSCAASGFTFTDYTMDWVRKAPGKGLEWVADVNPNSGGSIYNQEFKGRFTLSVDRSKNTLYLQMNSLRAEDTAVYYCARNLGPSFYFDYWGQGTLVTVSSASTKGPSVFPLAPSSKSTSGGTAALGCLVKDYFPEPVTVSWNSGALTSGVATGPAVLQSSGLYSLSSVVTVPSSSLGTQTYICNVNHKPSNTKVDKKVEPKSCDKTHTCPPCPAPELLGGPSVFLFPPKPKDTLMISRTPEVTCVVVDVSHEDPEVKFNWYVDGVEVHNAKTKPREEQYQSTYRVVSVLTVLHQDWLNGKEYKCKVSNKALPAPIEKTISKAKGQPREPQVSTLPPSREEMTKNQVSLVCLVYGFYPSDIAVEWESNGQPENNYKTTPPVLDSDGSFFLYSVLTVDKSRWQQGNVFSCSVMHEALHNHYTQKSLSLSPGK
chain 2: RIQMTQSPSSLSASVGDRVTITCKASQDVSIGVAWYQDKPGKAPKLLIYSASYRYTGVPSRFSGSGSGTDFTLTISSLQPEDFATYYCQQYYIYPYTFGQGTKVEIKGQPKAAPSVTLFPPSSEELQANKATLVCYISDFYPGAVTVAWKADSSPVKAGVETTTPSKQSNNKYAAWSYLSLTPEQWKSHRSYSCQVTHEGSTVEKTVAPTEC
As for B1, the % AB (LC1/LC2) (correct IgG BsAb assembly) was determined as 96.5% in [1] and 96% in data set [2]. Also, the values for the % AA Homodimer (incorrect assembly) in [3] (pertuzumab × BHA10 bispecific) and in data set [3] (pertuzumab × matuzumab bispecific) were 3.5% and 2.1%, respectively. Further, the % AB (2x LC1) (incorrect assembly) in [4] and in data set [5] was 0% each time. For the same protein, the % AB (2x LC2) (incorrect assembly) in data set [6] and in [7] was 0% each time.

B2: pertuzumab HC_7.8.60_A + pertuzumab LC (IgG4 HC backbone) (protein)
chain 1: EVQLVESGGGLVQPGGSLRLSCAASGFTFTDYTMDWVRKAPGKGLEWVADVNPNSGGSIYNQEFKGRFTLSVDRSKNTLYLQMNSLRAEDTAVYYCARNLGPSFYFDYWGQGTLVTVSSASTKGPSVFPLAPCSRSTSESTAALGCLVKDYFPEPVTVSWNSGALTSGVATGPAVLQSSGLYSLSSVVTVPSSSLGTKTYTCNVDHKPSNTKVDKRVESKYGPPCPPCPAPEAAGGPSVFLFPPKPKDTLMISRTPEVTCVVVDVSQEDPEVQFNWYVDGVEVHNAKTKPREEQFQSTYRVVSVLTVLHQDWLNGKEYKCKVSNKGLPSSIEKTISKAKGQPREPQVYTLPPSQEEMTDNQVSLTCLVKGFYPSDIAVEWESNGQPENNYKTTPPVLMSDGSFFLASRLTVDKSRWQEGNVFSCSVMHEALHNHYTQKSLSLSLG
chain 2: B1 chain 2
On to B2, for which the % AB (LC1/LC2) (correct IgG BsAb assembly) in [8] came to 95.8%; in data set [9] it was 90.9%. Also, the % AA Homodimer (incorrect assembly) in [10] (setting [23]) was determined as 0%; in data set [10] (setting [24]) it was 9.1%. Further, the % AB (2x LC1) (incorrect assembly) in [11] and in data set [12] was 0% in each case. The % AB (2x LC2) (incorrect assembly) in data set [13] and in [14] was 0% in each case.

B3: pertuzumab HC_20.8.34_A + pertuzumab LC (IgG4 HC backbone) (protein)
chain 1: B2 chain 1 with Y348S, D359K, T365M, K369Y, M398D, A406Y, R408V
chain 2: B1 chain 2
In the case of B3, the % AB (LC1/LC2) (correct IgG BsAb assembly) in data set [15] turned out to be 94.8%; in data set [16], 94.1%. For the same protein, the % AA Homodimer (incorrect assembly) was found to be 5.2% in [10] (setting [23]) and 2.3% in [10] (setting [24]). In addition, the % AB (2x LC1) (incorrect assembly) in data set [17] and in data set [18] was 0% throughout. Also, the % AB (2x LC2) (incorrect assembly) in data set [19] and in data set [20] was 0% in each case.

B4: anti-c-Met 5D5 VH-human IgG1 HC with CH3 mutations K360D, D399M, Y407A, with 5D5 light chain (protein)
chain 1: EVQLVESGGGLVQPGGSLRLSCAASGYTFTSYWLHWVRQAPGKGLEWVGMIDPSNSDTRFNPNFKDRFTISADTSKNTAYLQMNSLRAEDTAVYYCATYRSYVTPLDYWGQGTLVTVSSASTKGPSVFPLAPSSKSTSGGTAALGCLVKDYFPEPVTVSWNSGALTSGVHTFPAVLQSSGLYSLSSVVTVPSSSLGTQTYICNVNHKPSNTKVDKRVEPKSCDKTHTCPPCPAPELLGGPSVFLFPPKPKDTLMISRTPEVTCVVVDVSHEDPEVKFNWYVDGVEVHNAKTKPREEQYNSTYRVVSVLTVLHQDWLNGKEYKCKVSNKALPAPIEKTISKAKGQPREPQVYTLPPSREEMTDNQVSLTCLVKGFYPSDIAVEWESNGQPENNYKTTPPVLMSDGSFFLASKLTVDKSRWQQGNVFSCSVMHEALHNHYTQKSLSLSPGK
chain 2: DIQMTQSPSSLSASVGDRVTITCKSSQSLLYTSSQKNYLAWYQQKPGKAPKLLIYWASTRESGVPSRFSGSGSGTDFTLTISSLQPEDFATYYCQQYYAYPWTFGQGTKVEIKRTVAAPSVFIFPPSDEQLKSGTASVVCLLNNFYPREAKVQWKVDNALQSGNSQESVTEQDSKDSTYSLSSTLTLSKADYEKHKVYACEVTHQGLSSPVTKSFNRGEC
Protein B4 displayed a % heterodimer (UPLC) in data set [21] of 93%.

B5: anti-c-Met 5D5 VH-human IgG1 HC with CH3 mutations E345R, Q347R, T366V, K409V, with 5D5 light chain (protein)
chain 1: B4 chain 1 with E347R, Q349R, D362K, T368V, M401D, A409Y, K411V
chain 2: B4 chain 2
For B5, the % heterodimer (UPLC) in [22] is 93.3%.
